# Changes are numbered by the printed parent chain. Numbers in names are those of the source. No end group written: not given here. TMR = tetramethyl rhodamine dye
# T1: retinoblastoma protein pocket domain (Rb^P), wild type (human, UniProt P06400 380-788)
# T1 construct: also called WT Rb^P; WT
# T1 sequence (looked up): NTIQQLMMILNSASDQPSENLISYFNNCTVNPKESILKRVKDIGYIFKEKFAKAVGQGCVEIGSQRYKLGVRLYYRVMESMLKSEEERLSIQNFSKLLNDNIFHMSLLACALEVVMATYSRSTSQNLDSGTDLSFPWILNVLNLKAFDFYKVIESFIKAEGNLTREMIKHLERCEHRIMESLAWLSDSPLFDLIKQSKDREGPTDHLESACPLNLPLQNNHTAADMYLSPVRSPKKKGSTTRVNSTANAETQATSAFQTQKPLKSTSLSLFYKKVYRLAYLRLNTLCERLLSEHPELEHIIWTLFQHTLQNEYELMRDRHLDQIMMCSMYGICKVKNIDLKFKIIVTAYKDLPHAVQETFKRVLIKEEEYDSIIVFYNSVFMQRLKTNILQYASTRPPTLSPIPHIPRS
# T2: Rb^P S474N (human, UniProt P06400 380-788, S474N)
# T2 construct: also called variant 12
# T2 sequence (looked up): T1 sequence (looked up) with S95N
# T3: Rb^P R621S (human, UniProt P06400 380-788, R621S)
# T3 construct: also called variant 44
# T3 sequence (looked up): T1 sequence (looked up) with R242S
# T4: Rb^P T638S (human, UniProt P06400 380-788, T638S)
# T4 construct: also called variant 45
# T4 sequence (looked up): T1 sequence (looked up) with T259S
# T5: Rb^P R668C (human, UniProt P06400 380-788, R668C)
# T5 construct: also called variant 51
# T5 sequence (looked up): T1 sequence (looked up) with R289C
# B1: TMR-E2F1^TD, peptide of the E2F1 transactivation domain (peptide)
# peptide: {TMR}-GEGIRDLFDCDFGDLTPLD
# notes: also called E2F^TD; source: synthetic peptide, bought: GenScript
# B2: TMR-E7^LxCxE, LxCxE peptide of the E7 oncoprotein from HPV (peptide)
# peptide: DLYCYEQLN
# modifications: also: TMR label, position not given here
# notes: source: synthetic peptide, bought: GenScript
# Tests used:
# Assay in all cases: fluorescence polarisation; 37 °C, after the 25 °C reading ramped over 7 min to 37 °C and 2 min incubation; unlabeled Rb^P against 1.5 nM TMR-E2F1^TD or 7.5 nM TMR-E7^LxCxE; 25 mM Tris pH 8.0, 200 mM NaCl, 1 mM DTT, 0.1% Tween-20; apparent Kd
# Conditions in all cases: both partners purified
# [1] = target: T1, retinoblastoma protein pocket domain …
# Rb^P S474N = target: T2, Rb^P S474N
# Rb^P R621S = target: T3, Rb^P R621S
# Rb^P T638S = target: T4, Rb^P T638S
# Rb^P R668C = target: T5, Rb^P R668C
Binder,Kd [1] [nM],Kd (Rb^P S474N) [nM],Kd (Rb^P R621S) [nM],Kd (Rb^P T638S) [nM],Kd (Rb^P R668C) [nM]
B1,22,26,38,38,25
B2,12,13,17,14,16

# Source: article PMC11931385, “Structural and functional analysis of cancer-associated missense variants in the retinoblastoma protein pocket domain” (The Journal of Biological Chemistry, 2025)
